Source: patent publication US20260092093A1 (TJ BIOPHARMA SHANGHAI, published 2026)

T1: hIL-18Rα ECD-Fc fusion protein (human, UniProt Q13478 22-329)
T1 construct: extracellular domain; captured on Protein A sensor
T1 sequence (looked up): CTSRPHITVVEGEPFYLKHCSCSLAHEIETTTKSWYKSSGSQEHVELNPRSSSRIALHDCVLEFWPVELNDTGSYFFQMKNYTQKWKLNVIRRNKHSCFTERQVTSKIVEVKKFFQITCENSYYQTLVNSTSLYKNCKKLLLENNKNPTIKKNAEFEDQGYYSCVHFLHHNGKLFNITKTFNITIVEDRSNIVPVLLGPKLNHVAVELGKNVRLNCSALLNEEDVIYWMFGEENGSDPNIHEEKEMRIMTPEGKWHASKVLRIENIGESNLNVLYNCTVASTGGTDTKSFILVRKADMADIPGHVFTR

T2: recombinant hIL-18Rα extracellular domain (human, UniProt Q13478 22-329, biotin label (selection) or fluorescent probe (single-clone FACS), sites not given)
T2 construct: extracellular domain; also called hIL-18Rα ECD; hIL-18Rα-ECD
T2 sequence (looked up): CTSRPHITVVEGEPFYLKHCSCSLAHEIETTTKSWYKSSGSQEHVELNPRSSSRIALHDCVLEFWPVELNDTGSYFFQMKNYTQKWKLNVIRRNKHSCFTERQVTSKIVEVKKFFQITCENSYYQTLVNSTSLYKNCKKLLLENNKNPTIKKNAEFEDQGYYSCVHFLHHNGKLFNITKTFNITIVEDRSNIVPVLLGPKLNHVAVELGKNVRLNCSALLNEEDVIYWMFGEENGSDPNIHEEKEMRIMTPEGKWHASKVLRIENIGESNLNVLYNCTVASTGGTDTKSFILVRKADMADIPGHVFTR


Tests used:
[1] = molecular target: T1, hIL-18Rα ECD-Fc fusion protein; experiment: BLI (Octet RED96), hIL-18Rα ECD-Fc on Protein A sensor
Description: The affinities of IL-18 variant polypeptides for hIL-18Rα were assessed by Biolayer Interferometry (BLI) on Octet RED96 using Protein A sensor coated with hIL-18Rα ECD-Fc fusion protein, and WT hIL-18 was used as a control.

[2] = molecular target: T2, recombinant hIL-18Rα extracellular …; experiment: single-clone FACS, yeast display, 10 nM labelled hIL-18Rα ECD
In short: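 Yeast clones displaying IL-18 variants (screening rounds 4 and 5), at equal density, incubated with 10 nM fluorescently labelled hIL-18Rα ECD, then washed. Fraction of fluorescence-positive binding cells per clone measured by flow cytometry.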

Binder	Kd [1] [nM]	Response (nm) [1] [nm]	koff [1] [s⁻¹]	kon [1] [M⁻¹ s⁻¹]	% of fluorescence positive cells [2] [%]
IL-18 variant polypeptide M13 (ligand) YFPKLKSKLSVIRNLNDQVLFIDQGNRPLFEDMTDSDCRDNAPRTIFIISMYKQSIWRGMAVTISVKCEKISTLSCENKIISFKEMNPPDNIKDTKSDIIFFQRSVPGHDNKMQFESSSYEGYFLACEKERDLFKLILKKEDELGDRSIMFTVQNED	11.6	0.31	0.0038	327000	96.4
IL-18 variant polypeptide M20 (ligand) YFPKLRSKLSVIRNLNDQVLFIDQGNRPLFEDMTDSDCRDNAPRTIFIISMYKSSRSRGMAVTISVKCEKISTLSCENKIISFKEMNPPDGIKDTKSDIIFFQSSVPGHDNKMQFESSSYEGYFLACEKERDLFKLILKKEDELGDRSIMFTVQNED	35.1	0.136	0.0167	476000	86.2
IL-18 variant polypeptide M21 (ligand) YFPKLRSKLSVIRNLNDQVLFIDQGNRPLFEDMTDSDCRDNAPRTIFIISMYKSSSTRGMAVTISVKCEKISTLSCENKIISFKEMNPPDGIKDTKSDIIFFQSSVPGHDNKMQFESSSYEGYFLACEKERDLFKLILKKEDELGDRSIMFTVQNED	64.9	0.0791	0.0221	340000	89.9
IL-18 variant polypeptide M19 (ligand) YFPKLKSKLSVIRNLNDQVLFIDQGNRPLFEDMTDSDCRDNAPRTIFIISMYKHSEQRGMAVTISVKCEKISTLSCENKIISFKEMNPPDAIKDTKSDIIFFQRSVPGHDNKMQFESSSYEGYFLACEKERDLFKLILKKEDELGDRSIMFTVQNED	112	0.025	0.0554	495000	90
IL-18 variant polypeptide M17 (ligand) YFPKLRSKLSVIRNLNDQVLFIDQGNRPLFEDMTDSDCRDNAPRTIFIISMYKLSTARGMAVTISVKCEKISTLSCENKIISFKEMNPPDGIKDTKSDIIFFQRSVPGHDNKMQFESSSYEGYFLACEKERDLFKLILKKEDELGDRSIMFTVQNED	67.7	0.0784	0.0231	340000	87.1
IL-18 variant polypeptide M16 (ligand) YFPKLRSKLSVIRNLNDQVLFIDQGNRPLFEDMTDSDCRDNAPRTIFIISMYKSSRNRGMAVTISVKCEKISTLSCENKIISFKEMNPPDGIKDTKSDIIFFQSSVPGHDNKMQFESSSYEGYFLACEKERDLFKLILKKEDELGDRSIMFTVQNED	42.6	0.111	0.0177	415000	88.5
IL-18 variant polypeptide M14 (ligand) YFNKLKSKLSVIRNLNDQVLFIDQGNRPLFEDMTDSDCRDNAPRTIFIISMYKPSSSRGMAVTISVKCEKISTLSCENKIISFKEMNPPDRIKDTKSDIIFFQASVPGHDNKMQFESSSYEGYFLACEKERDLFKLILKKEDELGDRSIMFTVQNED	23.6	0.218	0.00588	250000	88.3
IL-18 variant polypeptide M15 (ligand) YFPKLRSKLSVIRNLNDQVLFIDQGNRPLFEDMTDSDCRDNAPRTIFIISMYKSSYTRGMAVTISVKCEKISTLSCENKIISFKEMNPPDGIKDTKSDIIFFQRSVPGHDNKMQFESSSYEGYFLACEKERDLFKLILKKEDELGDRSIMFTVQNED	36.7	0.122	0.0183	499000	95
IL-18 variant polypeptide M18 (ligand) YFPKLRSKLSVIRNLNDQVLFIDQGNRPLFEDMTDSDCRDNAPRTIFIISMYKSSRRRGMAVTISVKCEKISTLSCENKIISFKEMNPPDGIKDTKSDIIFFQSSVPGHDNKMQFESSSYEGYFLACEKERDLFKLILKKEDELGDRSIMFTVQNED	33.1	0.173	0.0134	404000	80.9

Other lines, results leading:

Kd [1] [nM]	Response (nm) [1] [nm]	koff [1] [s⁻¹]	kon [1] [M⁻¹ s⁻¹]	% of fluorescence positive cells [2] [%]	Binder
83.9	0.0323	0.0612	730000	0.18	IL-18 variant polypeptide M29 (ligand) YFPKLMSKLSVIRNLNDQVLFIDQGNRPLFEDMTDSDCRDNAPRTIFIISMYKFSDRRGMAVTISVKCEKISTLSCENKIISFKEMNPPDPIKDTKSDIIFFQRSVPGHDNKMQFESSSYEGYFLACEKERDLFKLILKKEDELGDRSIMFTVQNED
30.2	0.0275	0.0389	1.29e+06	0.46	IL-18 variant polypeptide M30 (ligand) YFPKLLSKLSVIRNLNDQVLFIDQGNRPLFEDMTDSDCRDNAPRTIFIISMYKHSTVRGMAVTISVKCEKISTLSCENKIISFKEMNPPDSIKDTKSDIIFFQRSVPGHDNKMQFESSSYEGYFLACEKERDLFKLILKKEDELGDRSIMFTVQNED
4080	0.0592	0.0398	9740	4.83	IL-18 variant polypeptide M22 (ligand) YFPKLRSKLSVIRNLNDQVLFIDQGNRPLFEDMTDSDCRDNAPRTIFIISMYKYSRGRGMAVTISVKCEKISTLSCENKIISFKEMNPPDKIKDTKSDIIFFQSSVPGHDNKMQFESSSYEGYFLACEKERDLFKLILKKEDELGDRSIMFTVQNED
54.1	0.0947	0.0189	349000	69	IL-18 variant polypeptide M31 (ligand) YFPKLRSKLSVIRNLNDQVLFIDQGNRPLFEDMTDSDCRDNAPRTIFIISMYKHSIHRGMAVTISVKCEKISTLSCENKIISFKEMNPPDIIKDTKSDIIFFQYSVPGHDNKMQFESSSYEGYFLACEKERDLFKLILKKEDELGDRSIMFTVQNED
44.1	0.0798	0.0256	581000	1.41	IL-18 variant polypeptide M25 (ligand) YFPKLRSKLSVIRNLNDQVLFIDQGNRPLFEDMTDSDCRDNAPRTIFIISMYKLSTTRGMAVTISVKCEKISTLSCENKIISFKEMNPPDRIKDTKSDIIFFQRSVPGHDNKMQFESSSYEGYFLACEKERDLFKLILKKEDELGDRSIMFTVQNED
930	0.0434	0.0451	48500	1.36	IL-18 variant polypeptide M24 (ligand) YFPKLRSKLSVIRNLNDQVLFIDQGNRPLFEDMTDSDCRDNAPRTIFIISMYKYSTSRGMAVTISVKCEKISTLSCENKIISFKEMNPPDNIKDTKSDIIFFQRSVPGHDNKMQFESSSYEGYFLACEKERDLFKLILKKEDELGDRSIMFTVQNED
368	0.0522	0.0302	82300	2.36	IL-18 variant polypeptide M23 (ligand) YFPKLRSKLSVIRNLNDQVLFIDQGNRPLFEDMTDSDCRDNAPRTIFIISMYKYSTRRGMAVTISVKCEKISTLSCENKIISFKEMNPPDNIKDTKSDIIFFQRSVPGHDNKMQFESSSYEGYFLACEKERDLFKLILKKEDELGDRSIMFTVQNED
57.1	0.0917	0.0119	207000	96.7	IL-18 variant polypeptide M26 (ligand) YFPKLRSKLSVIRNLNDQVLFIDQGNRPLFEDMTDSDCRDNAPRTIFIISMYKHSDKRGMAVTISVKCEKISTLSCENKIISFKEMNPPDVIKDTKSDIIFFQYSVPGHDNKMQFESSSYEGYFLACEKERDLFKLILKKEDELGDRSIMFTVQNED
30.4	0.178	0.00966	318000	83.4	IL-18 variant polypeptide M28 (ligand) YFPKLASKLSVIRNLNDQVLFIDQGNRPLFEDMTDSDCRDNAPRTIFIISMYKWSGGRGMAVTISVKCEKISTLSCENKIISFKEMNPPDVIKDTKSDIIFFQYSVPGHDNKMQFESSSYEGYFLACEKERDLFKLILKKEDELGDRSIMFTVQNED
45.9	0.0836	0.00756	165000	77.7	IL-18 variant polypeptide M27 (ligand) YFPKLRSKLSVIRNLNDQVLFIDQGNRPLFEDMTDSDCRDNAPRTIFIISMYKHSYTRGMAVTISVKCEKISTLSCENKIISFKEMNPPDVIKDTKSDIIFFQYSVPGHDNKMQFESSSYEGYFLACEKERDLFKLILKKEDELGDRSIMFTVQNED
